Measurements from paper PMC8422858.

Target: His-tagged recombinant human apolipoprotein L3 (rHis-APOL3) (human)
Experiment: native MS

His-tagged recombinant human apolipoprotein L3 (rHis-APOL3) (natural protein)
stoichiometry N: 2
